Results on 12 substances are retold here after publication PMC9045149.

The target of assay [1] is CD16/50L CBD wild type fused to SmBit and to LgBit (CBD-SmBit/LgBit, plasmid pWP004) (Clostridioides difficile phage ϕHN50 (identical in ϕHN16-1)). The experiment in a line: split reporter (BiFC, NanoBiT); BitLuc^opt split luciferase in live C. difficile R20291; CBD-SmBit and CBD-LgBit co-expressed, induced with 4% (wt/vol) xylose for 2 h; Nano-Glo (furimazine) substrate, luminescence read.

Assay [2] deals with CD16/50L CBD E239A fused to SmBit and to LgBit. The experiment in a line: split complementary luciferase assay (SmBit/LgBit) in C. difficile cells. As to conditions: 4% (wt/vol) xylose for 2 h; furimazine substrate incubated for 5 min; parent: est. 6.0; read off a plot.
Assay [3] has as its target CD16/50L CBD W257A fused to SmBit and to LgBit. Described as above. To be noted: 4% (wt/vol) xylose for 2 h; furimazine substrate incubated for 5 min; parent: est. 6.0; read off a plot.
Assay [4] has as its target CD16/50L CBD Q250A fused to SmBit and to LgBit. The description is as above. As to conditions: 4% (wt/vol) xylose for 2 h; furimazine substrate incubated for 5 min; parent: est. 6.0; read off a plot.
For a further assay, the target named is PG-PS complex. As to the kind of experiment: co-precipitation (pull-down) with PG-PS complex, SDS-PAGE band quantification. As to conditions: parent: est. 1.0; read off a plot.
The target of assay [5] is CD16/50L CBD M260A fused to SmBit and to LgBit. The experiment in a line: split complementary luciferase assay (SmBit/LgBit) in C. difficile cells. As to conditions: 4% (wt/vol) xylose for 2 h; furimazine substrate incubated for 5 min; parent: est. 6.0; read off a plot.
Assay [6] has as its target CD16/50L CBD F248A fused to SmBit and to LgBit. Described as above. As to conditions: 4% (wt/vol) xylose for 2 h; furimazine substrate incubated for 5 min; parent: est. 6.0; read off a plot.
Assay [7] deals with CD16/50L CBD C234A fused to SmBit and to LgBit. The description is as above. To be noted: 4% (wt/vol) xylose for 2 h; furimazine substrate incubated for 5 min; parent: est. 6.0; read off a plot.
For assay [8], the target named is 6xHis-tagged cell-wall binding domain of endolysin CD16/50L, wild type (Clostridioides difficile phage ϕHN50 (identical in ϕHN16-1)). As to the kind of experiment: SEC; Superdex 75 10/300 GL, 50 mM Tris-HCl (pH 8.0), 500 mM NaCl, 0.5 mL/min; approximately 2.5 mg/mL of each purified 6xHis-CBD variant injected separately; size from calibration with standard proteins. Background: SEC sorts molecules by how far they enter the pores of the column.

Assay [9] has as its target CD16/50L CBD (Y202A, W257A) fused to SmBit and to LgBit. As to the kind of experiment: split complementary luciferase assay (SmBit/LgBit) in C. difficile cells. As to conditions: 4% (wt/vol) xylose for 2 h; furimazine substrate incubated for 5 min; parent: est. 6.0; read off a plot.
Assay [10] deals with CD16/50L CBD Y202A fused to SmBit and to LgBit. The assay is described as above. As to conditions: 4% (wt/vol) xylose for 2 h; furimazine substrate incubated for 5 min; parent: est. 6.0; read off a plot.

In turn, “CD16/50L CBD wild type fused to SmBit and to LgBit (CBD-SmBit/LgBit, plasmid pWP004) (domain or fragment)” registered a fold increase of the luciferase signal over the single-fragment controls in [1] of less than 300 fold. As for “CD16/50L CBD wild type fused to SmBit and to LgBit (CBD-SmBit/LgBit, plasmid pWP004) E239A”, in assay [2], the response stood at 6.1 log RLU.

On to “CD16/50L CBD wild type fused to SmBit and to LgBit (CBD-SmBit/LgBit, plasmid pWP004) W257A”, for which, in assay [3], the response was found to be 4.9 log RLU. For “CD16/50L CBD wild type fused to SmBit and to LgBit (CBD-SmBit/LgBit, plasmid pWP004) Q250A”, the response in assay [4] turned out to be 6 log RLU. As to “6xHis-tagged cell-wall binding domain of endolysin CD16/50L, wild type Y202A; W257A”, the ratio to parent with PG-PS complex stood at 0.47.

As to “CD16/50L CBD wild type fused to SmBit and to LgBit (CBD-SmBit/LgBit, plasmid pWP004) M260A”, the response in assay [5] is 6 log RLU. For “CD16/50L CBD wild type fused to SmBit and to LgBit (CBD-SmBit/LgBit, plasmid pWP004) F248A”, the response in [6] amounted to 6 log RLU. With “CD16/50L CBD wild type fused to SmBit and to LgBit (CBD-SmBit/LgBit, plasmid pWP004) C234A”, the response in assay [7] amounted to 6 log RLU. Usually stoichiometry N stands for a count of units in the complex or per binding partner. Substance “6xHis-tagged cell-wall binding domain of endolysin CD16/50L, wild type (domain or fragment)” came in with a stoichiometry N in assay [8] of 2.

For the substance “CD16/50L CBD wild type fused to SmBit and to LgBit (CBD-SmBit/LgBit, plasmid pWP004) Y202A; W257A”, in [9], the response was determined as 3.5 log RLU. In the case of “6xHis-tagged cell-wall binding domain of endolysin CD16/50L, wild type W257A”, the ratio to parent with PG-PS complex was 0.35. Turning to “CD16/50L CBD wild type fused to SmBit and to LgBit (CBD-SmBit/LgBit, plasmid pWP004) Y202A”, in [10], the response came out at 5.9 log RLU.
